B1: RLP60-ELP80: RLP-ELP block co-polypeptide, 60 core and 80 corona repeats (protein)
chain: QYPSDGRGQYPSDGRGQYPSDGRGQYPSDGRGQYPSDGRGQYPSDGRGQYPSDGRGQYPSDGRGQYPSDGRGQYPSDGRGQYPSDGRGQYPSDGRGQYPSDGRGQYPSDGRGQYPSDGRGQYPSDGRGQYPSDGRGQYPSDGRGQYPSDGRGQYPSDGRGQYPSDGRGQYPSDGRGQYPSDGRGQYPSDGRGQYPSDGRGQYPSDGRGQYPSDGRGQYPSDGRGQYPSDGRGQYPSDGRGQYPSDGRGQYPSDGRGQYPSDGRGQYPSDGRGQYPSDGRGQYPSDGRGQYPSDGRGQYPSDGRGQYPSDGRGQYPSDGRGQYPSDGRGQYPSDGRGQYPSDGRGQYPSDGRGQYPSDGRGQYPSDGRGQYPSDGRGQYPSDGRGQYPSDGRGQYPSDGRGQYPSDGRGQYPSDGRGQYPSDGRGQYPSDGRGQYPSDGRGQYPSDGRGQYPSDGRGQYPSDGRGQYPSDGRGQYPSDGRGGAGVPGGGVPGAGVPGGGVPGAGVPGGGVPGAGVPGGGVPGAGVPGGGVPGAGVPGGGVPGAGVPGGGVPGAGVPGGGVPGAGVPGGGVPGAGVPGGGVPGAGVPGGGVPGAGVPGGGVPGAGVPGGGVPGAGVPGGGVPGAGVPGGGVPGAGVPGGGVPGAGVPGGGVPGAGVPGGGVPGAGVPGGGVPGAGVPGGGVPGAGVPGGGVPGAGVPGGGVPGAGVPGGGVPGAGVPGGGVPGAGVPGGGVPGAGVPGGGVPGAGVPGGGVPGAGVPGGGVPGAGVPGGGVPGAGVPGGGVPGAGVPGGGVPGAGVPGGGVPGAGVPGGGVPGAGVPGGGVPGAGVPGGGVPGAGVPGGGVPGAGVPGGGVPGAGVPGGGVPGAGVPGGGVPGAGVPGGGVP
B2: RLP40-ELP160: RLP-ELP block co-polypeptide, 40 core and 160 corona repeats (protein)
chain: QYPSDGRGQYPSDGRGQYPSDGRGQYPSDGRGQYPSDGRGQYPSDGRGQYPSDGRGQYPSDGRGQYPSDGRGQYPSDGRGQYPSDGRGQYPSDGRGQYPSDGRGQYPSDGRGQYPSDGRGQYPSDGRGQYPSDGRGQYPSDGRGQYPSDGRGQYPSDGRGQYPSDGRGQYPSDGRGQYPSDGRGQYPSDGRGQYPSDGRGQYPSDGRGQYPSDGRGQYPSDGRGQYPSDGRGQYPSDGRGQYPSDGRGQYPSDGRGQYPSDGRGQYPSDGRGQYPSDGRGQYPSDGRGQYPSDGRGQYPSDGRGQYPSDGRGQYPSDGRGGAGVPGGGVPGAGVPGGGVPGAGVPGGGVPGAGVPGGGVPGAGVPGGGVPGAGVPGGGVPGAGVPGGGVPGAGVPGGGVPGAGVPGGGVPGAGVPGGGVPGAGVPGGGVPGAGVPGGGVPGAGVPGGGVPGAGVPGGGVPGAGVPGGGVPGAGVPGGGVPGAGVPGGGVPGAGVPGGGVPGAGVPGGGVPGAGVPGGGVPGAGVPGGGVPGAGVPGGGVPGAGVPGGGVPGAGVPGGGVPGAGVPGGGVPGAGVPGGGVPGAGVPGGGVPGAGVPGGGVPGAGVPGGGVPGAGVPGGGVPGAGVPGGGVPGAGVPGGGVPGAGVPGGGVPGAGVPGGGVPGAGVPGGGVPGAGVPGGGVPGAGVPGGGVPGAGVPGGGVPGAGVPGGGVPGAGVPGGGVPGAGVPGGGVPGAGVPGGGVPGAGVPGGGVPGAGVPGGGVPGAGVPGGGVPGAGVPGGGVPGAGVPGGGVPGAGVPGGGVPGAGVPGGGVPGAGVPGGGVPGAGVPGGGVPGAGVPGGGVPGAGVPGGGVPGAGVPGGGVPGAGVPGGGVPGAGVPGGGVPGAGVPGGGVPGAGVPGGGVPGAGVPGGGVPGAGVPGGGVPGAGVPGGGVPGAGVPGGGVPGAGVPGGGVPGAGVPGGGVPGAGVPGGGVPGAGVPGGGVPGAGVPGGGVPGAGVPGGGVPGAGVPGGGVPGAGVPGGGVPGAGVPGGGVPGAGVPGGGVPGAGVPGGGVPGAGVPGGGVPGAGVPGGGVPGAGVPGGGVPGAGVPGGGVPGAGVPGGGVPGAGVPGGGVPGAGVPGGGVP
B3: RLP80-ELP160: RLP-ELP block co-polypeptide, 80 core and 160 corona repeats (protein)
chain: QYPSDGRGQYPSDGRGQYPSDGRGQYPSDGRGQYPSDGRGQYPSDGRGQYPSDGRGQYPSDGRGQYPSDGRGQYPSDGRGQYPSDGRGQYPSDGRGQYPSDGRGQYPSDGRGQYPSDGRGQYPSDGRGQYPSDGRGQYPSDGRGQYPSDGRGQYPSDGRGQYPSDGRGQYPSDGRGQYPSDGRGQYPSDGRGQYPSDGRGQYPSDGRGQYPSDGRGQYPSDGRGQYPSDGRGQYPSDGRGQYPSDGRGQYPSDGRGQYPSDGRGQYPSDGRGQYPSDGRGQYPSDGRGQYPSDGRGQYPSDGRGQYPSDGRGQYPSDGRGQYPSDGRGQYPSDGRGQYPSDGRGQYPSDGRGQYPSDGRGQYPSDGRGQYPSDGRGQYPSDGRGQYPSDGRGQYPSDGRGQYPSDGRGQYPSDGRGQYPSDGRGQYPSDGRGQYPSDGRGQYPSDGRGQYPSDGRGQYPSDGRGQYPSDGRGQYPSDGRGQYPSDGRGQYPSDGRGQYPSDGRGQYPSDGRGQYPSDGRGQYPSDGRGQYPSDGRGQYPSDGRGQYPSDGRGQYPSDGRGQYPSDGRGQYPSDGRGQYPSDGRGQYPSDGRGQYPSDGRGQYPSDGRGQYPSDGRGQYPSDGRGQYPSDGRGQYPSDGRGGAGVPGGGVPGAGVPGGGVPGAGVPGGGVPGAGVPGGGVPGAGVPGGGVPGAGVPGGGVPGAGVPGGGVPGAGVPGGGVPGAGVPGGGVPGAGVPGGGVPGAGVPGGGVPGAGVPGGGVPGAGVPGGGVPGAGVPGGGVPGAGVPGGGVPGAGVPGGGVPGAGVPGGGVPGAGVPGGGVPGAGVPGGGVPGAGVPGGGVPGAGVPGGGVPGAGVPGGGVPGAGVPGGGVPGAGVPGGGVPGAGVPGGGVPGAGVPGGGVPGAGVPGGGVPGAGVPGGGVPGAGVPGGGVPGAGVPGGGVPGAGVPGGGVPGAGVPGGGVPGAGVPGGGVPGAGVPGGGVPGAGVPGGGVPGAGVPGGGVPGAGVPGGGVPGAGVPGGGVPGAGVPGGGVPGAGVPGGGVPGAGVPGGGVPGAGVPGGGVPGAGVPGGGVPGAGVPGGGVPGAGVPGGGVPGAGVPGGGVPGAGVPGGGVPGAGVPGGGVPGAGVPGGGVPGAGVPGGGVPGAGVPGGGVPGAGVPGGGVPGAGVPGGGVPGAGVPGGGVPGAGVPGGGVPGAGVPGGGVPGAGVPGGGVPGAGVPGGGVPGAGVPGGGVPGAGVPGGGVPGAGVPGGGVPGAGVPGGGVPGAGVPGGGVPGAGVPGGGVPGAGVPGGGVPGAGVPGGGVPGAGVPGGGVPGAGVPGGGVPGAGVPGGGVPGAGVPGGGVPGAGVPGGGVPGAGVPGGGVPGAGVPGGGVPGAGVPGGGVPGAGVPGGGVPGAGVPGGGVPGAGVPGGGVPGAGVPGGGVPGAGVPGGGVPGAGVPGGGVP

How the values were obtained:
[1] = Cryo-TEM micelle core size, inter-core spacing and aspect ratio; assay type: physicochemical; details: for Spacing (nm): inter-core spacing; for Spacing (nm) / Core radius (nm): mean ± standard deviation
Protocol: Using the data from FIG. 18, particularly the longest straight line of an individual particle and a corresponding perpendicular measurement were made to describe the aspect ratio of particles observed.
Cryo-TEM experiments were performed at Duke University's Shared Materials Instrumentation Facility (Durham, N.C.). Lacey holey carbon grids (Ted Pella, Redding, Calif.) were glow discharged in a PELCO EasiGlow Cleaning System (Ted Pella, Redding, Calif.). A 3 μL drop (10 μM RLPn-ELP80) was deposited onto the grid, blotted for 3 s with an offset of −3 mm, and vitrified in liquid ethane using the Vitrobot Mark III (FEI, Eindhoven, Netherlands). Prior to vitrification, the sample chamber was maintained at 15° C. and 100% relative humidity to prevent sample evaporation. Grids were transferred to a Gatan 626 cryoholder (Gatan, Pleasanton, Calif.) and imaged with a FEI Tecnai G2 Twin TEM (FEI, Eindhoven, Netherlands), operating at 80 keV. Feature sizes and spacing distances were measured in ImageJ by manual measurement of at least 25 particles.

[2] = Static and dynamic light scattering (SLS/DLS) of block co-polypeptides; assay type: physicochemical; details: for Nagg / Rg(nm) / Rh (nm): 10 μM in PBS, 15 °C; for ρ: shape factor Rg/Rh
Protocol: Key parameters of interest are the hydrophilicity of the corona-forming block, the hydrophilicity of the core block, the overall length of the co-polypeptide and the ratio of the two blocks. Parameters of evaluation are the size, morphology, stability, and thermoresponsive behavior. All measurements were made in 140 mM NaCl, 10 mM phosphate buffer, 3 mM KCl, pH 7.4 unless otherwise specified. Size was evaluated by the hydrodynamic radios (Rh) and radius of gyration (Rg) by dynamic light scattering (DLS) and static light scattering (SLS) respectively. Rg and Rh can be combined to yield the shape factor ρ=Rg/Rh, which provides a rough indication of the morphology of the scatterer. […] For an elongated scatterer, the shape factor depends upon the aspect ratio. A combination of temperature dependent turbidity and DLS was utilized to determine the phase behavior of the block co-polypeptides. Cryogenic transmission electron microscopy (Cryo-TEM) was utilized to evaluate the morphology and provide crucial insight into the hydration of the core/corona chains. Stability of the assembled nanostructure was determined by a shift in the I1/I3 fluorescent bands of pyrene as described previously.
Static and dynamic light scattering measurements (SLS/DLS) were performed using an ALV/CGS-3 goniometer system (Langen, Germany). Samples for the ALV/CGS-3 goniometer system were prepared at a concentration of 10 μM in PBS and filtered through 0.45 μm Millex-GV filters into a 10 mm disposable borosilicate glass tube (Fischer). Simultaneous SLS and DLS measurements were obtained at 15° C. of the ELP for angles between 30°-150° at 5° increments, with each angle consisting of 3 runs for 15 s. SLS experiments were only conducted for self-assembling block co-polypeptides, since the molecular weight of a single block co-polypeptide chain is already known, and the Rg of a single chain is likely near or below the detection limit of the SLS instrument. The differential refractive index (dn/dc) was determined by measuring the refractive index at different concentrations using an Abbemat 500 refractometer (Anton Paar, Graz, Austria). DLS data were analyzed by fitting the autocorrelation function with a cumulant fit, using the built-in ALV software. Hydrodynamic radius (Rh) was plotted against angle and extrapolated to zero. SLS data were analyzed by partial Zimm plots using ALVSTAT software in order to determine the Rg and molecular weight (MW).

| Molecule | core radius (cryo-TEM) [1] [nm] | spacing between particle cores (cryo-TEM) [1] [nm] | Spacing (nm) ([1]; Table 2) | Core radius (nm) ([1]; Table 2, 10 μM in 140 mM PBS) | Nagg ([2]; Table 1) | Rg(nm) ([2]; Table 1) | Rh (nm) ([2]; Table 1) | ρ ([2]; Table 1) | Spacing (nm) ([1]; Table 4) | Core radius (nm) ([1]; Table 4) | hydrodynamic radius (Rh) [2] [nm] | radius of gyration (Rg) [2] [nm] | shape factor / form factor (Rg/Rh) [2] | Nagg ([2]; Table 3) | Rg(nm) ([2]; Table 3) | Rh (nm) ([2]; Table 3) | ρ ([2]; Table 3) |
| --- | --- | --- | --- | --- | --- | --- | --- | --- | --- | --- | --- | --- | --- | --- | --- | --- | --- |
| B1 | ~17.5 | 29.5 | 28.9 ± 5.1 | 17.5 ± 2.7 | 231 | 23.8 | 36.7 | 0.65 | – | – | – | – | – | – | – | – | – |
| B2 | 11.0 | 22.3 | – | – | – | – | – | – | 22.3 ± 5.2 | 11.0 ± 1.6 | 92.3 | 70.8 | 0.8 | 246 | 70.8 | 92.3 | 0.8 |
| B3 | – | – | – | – | – | – | – | – | 59.0 ± 13.2 | 29.3 ± 4.5 | 93.3 | 78.2 | 0.8 | 1728 | 78.2 | 93.5 | 0.84 |

Source: US20230093708A1, “PROTEIN NANOPARTICLE DESIGN AND APPLICATION” (Duke University, priority 2020, published 2023)
